Measurements as given in patent US20220054630A1 (published 2022).

Molecular target: T1, wild-type soluble E2 (sE2), HCV isolate H77C, residues 384-661 (UniProt P27958 384-661)
T1 chain: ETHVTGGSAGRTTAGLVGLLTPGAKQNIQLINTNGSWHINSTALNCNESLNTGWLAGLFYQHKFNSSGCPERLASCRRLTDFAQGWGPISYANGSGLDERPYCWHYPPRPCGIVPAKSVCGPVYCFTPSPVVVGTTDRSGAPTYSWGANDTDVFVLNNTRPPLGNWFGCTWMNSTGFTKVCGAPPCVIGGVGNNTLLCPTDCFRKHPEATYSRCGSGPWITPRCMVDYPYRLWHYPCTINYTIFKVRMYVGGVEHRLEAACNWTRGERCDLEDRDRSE
Assay: BLI

B1: CD81 large extracellular loop (LEL) (receptor)
chain: FVNKDQIAKDVKQFYDQALQQAVVDDDANNAKAVVKTFHETLDCCGSSTLTALTTSVLKNNLCPSGSNIISNLFKEDCHQKIDDLFSGK
  Kd: 22 nM
